Measured values taken from patent publication US10822593B2, “Alcohol dehydrogenase mutant and application thereof in synthesis of diaryl chiral alcohols” (priority 2018, dated 2020).

Columns and labels:
Type in all cases: biochemical
[1] = system: O=C(c1ccc(Cl)cc1)c1ccccn1; assay: Kinetic analysis, reduction of CPMK by wild type KpADH; conditions: other: substrate CPMK, coenzyme NADPH, pH 7.0, 30° C.
Method: (§1) Adopting a total reaction system of 200 μL, including: 1.0 mM NADPH, 1.0 mM substrate CPMK and sodium phosphate buffer (PBS, 100 mM, pH 7.0), fully and evenly mixing, maintaining at 30° C. for 2 min, adding an appropriate amount of enzyme solution, and detecting the change in light absorption at 340 nm.
(§2) The enzyme activity was calculated by the following formula: […]
(§3) in the formula, EW is the change in absorbance at 340 nm in 1 min; V is the volume of a reaction solution in mL; 6220 is the molar extinction coefficient of NADPH in L/(mol·cm); and 1 is the optical path distance in cm. One activity unit (U) corresponds to the amount of enzyme required to catalyze the oxidation of 1 μmol NADPH per minute under the above conditions.
(§4) A column used for purification was a nickel affinity column HisTrap FF crude, and purification was achieved through affinity chromatography using a histidine tag on recombinant protein. The nickel column was equilibrated with a solution A first, a crude enzyme solution was loaded, a penetrating peak was further eluted off using the solution A, and after equilibrium, a solution B (20 mM sodium phosphate, 500 mM NaCl, and 1000 mM imidazole, pH 7.4) was used for gradient elution to elute off the recombinant protein bound to the nickel column, so as to obtain the recombinant alcohol dehydrogenase mutant. The purified protein was subjected to activity measurement (CPMK as substrate, and NADPH as coenzyme) and SDS-PAGE analysis. […] The purified alcohol dehydrogenase protein was then replaced into a Tris-HCl (100 mM, pH 7.0) buffer using a Hi Trap Desalting column (GE Healthcare).
(§5) The activity of KpADH at different substrate concentrations and coenzyme concentrations was determined, and a double reciprocal curve was made based on the reciprocal of activity and substrate concentration to calculate kinetic parameters.

[2] = system: O=C(c1ccc(Cl)cc1)c1ccccn1; assay: Kinetic analysis, reduction of CPMK by mutant M4; conditions: other: substrate CPMK, coenzyme NADPH, pH 7.0, 30° C.
Method: In an embodiment of the present disclosure, the mutant includes the substitution of glycine for serine at position 196 of the alcohol dehydrogenase with the amino acid sequence shown in SEQ ID No. 2, which is named M4.
as §1, §2, §3, §4, §5

[3] = system: O=C(c1ccc(Cl)cc1)c1ccccn1; assay: Kinetic analysis, reduction of CPMK by mutant M2; conditions: other: substrate CPMK, coenzyme NADPH, pH 7.0, 30° C.
Method: In an embodiment of the present disclosure, the mutant includes the substitution of tryptophan for serine at position 196 of the alcohol dehydrogenase with the amino acid sequence shown in SEQ ID No. 2, which is named M2.
as §1, §2, §3, §4, §5

[4] = target: alcohol dehydrogenase KpADH, wild type, SEQ ID No. 2 (Vanderwaltozyma polyspora, UniProt A7TM80); assay: Kinetic analysis, reduction of CPMK by wild type KpADH; conditions: substrate CPMK, coenzyme NADPH, pH 7.0, 30° C.
Method: as §1, §2, §3, §4, §5

[5] = system: O=C(c1ccc(Cl)cc1)c1ccccn1; assay: Kinetic analysis, reduction of CPMK by mutant M5; conditions: other: substrate CPMK, coenzyme NADPH, pH 7.0, 30° C.
Method: In an embodiment of the present disclosure, the mutant includes the substitution of glycine for serine at position 196 of the alcohol dehydrogenase with the amino acid sequence shown in SEQ ID No. 2, and the substitution of valine for phenylalanine at position 161, which is named M5.
as §1, §2, §3, §4, §5

[6] = system: O=C(c1ccc(Cl)cc1)c1ccccn1; assay: Kinetic analysis, reduction of CPMK by mutant M1; conditions: other: substrate CPMK, coenzyme NADPH, pH 7.0, 30° C.
Method: In an embodiment of the present disclosure, the mutant includes the substitution of valine for serine at position 196 of the alcohol dehydrogenase with the amino acid sequence shown in SEQ ID No. 2, which is named M1.
as §1, §2, §3, §4, §5

[7] = system: O=C(c1ccc(Cl)cc1)c1ccccn1; assay: Kinetic analysis, reduction of CPMK by mutant M3; conditions: other: substrate CPMK, coenzyme NADPH, pH 7.0, 30° C.
Method: In an embodiment of the present disclosure, the mutant includes the substitution of proline for serine at position 196 of the alcohol dehydrogenase with the amino acid sequence shown in SEQ ID No. 2, which is named M3.
as §1, §2, §3, §4, §5

Q: For “alcohol dehydrogenase KpADH, wild type, SEQ ID No. 2 (Vanderwaltozyma polyspora DSM 70294)”, which Km [1] is on record?
A: The Km was 410 µM.

Q: And the Vmax [1]?
A: The Vmax was 17.9 µmol/min/mg.

Q: What about the kcat [1] of the same compound?
A: Its kcat is 11.8 s⁻¹.

Q: What about the kcat/Km [1] of the same compound?
A: The kcat/Km was 28900 M⁻¹ s⁻¹.

Q: With “alcohol dehydrogenase KpADH (SEQ ID No. 2) mutant M4, S196G (Vanderwaltozyma polyspora DSM 70294; S196G)” as the compound, how does the Km [2] read?
A: Its Km is 730 µM.

Q: What about the Vmax [2] of the same compound?
A: Its Vmax is 26.5 µmol/min/mg.

Q: And the kcat [2]?
A: Its kcat is 17.6 s⁻¹.

Q: And the kcat/Km [2]?
A: Its kcat/Km is 24100 M⁻¹ s⁻¹.

Q: How did the Km [3] turn out when “alcohol dehydrogenase KpADH (SEQ ID No. 2) mutant M2, S196W (Vanderwaltozyma polyspora DSM 70294; S196W)” was run?
A: The Km was 702 µM.

Q: And the Vmax [3]?
A: The Vmax was 21.3 µmol/min/mg.

Q: What about the kcat [3] of the same compound?
A: Its kcat is 14.2 s⁻¹.

Q: What about the kcat/Km [3] of the same compound?
A: Its kcat/Km is 20300 M⁻¹ s⁻¹.

Q: How did the Kcat/Km [4] turn out when `O=C(c1ccc(Cl)cc1)c1ccccn1` [CPMK, (4-chlorophenyl)-(pyridin-2-yl)-methanone] was run?
A: Its Kcat/Km is 28900 M⁻¹ s⁻¹.

Q: Which results are given for “alcohol dehydrogenase KpADH (SEQ ID No. 2) mutant M5, S196G/F161V (Vanderwaltozyma polyspora DSM 70294; F161V/S196G)”?
A: Km [5]: 690 µM; Vmax [5]: 17.7 µmol/min/mg; kcat [5]: 11.8 s⁻¹; kcat/Km [5]: 17100 M⁻¹ s⁻¹

Q: Which Km [6] does the source give for “alcohol dehydrogenase KpADH (SEQ ID No. 2) mutant M1, S196V (Vanderwaltozyma polyspora DSM 70294; S196V)” here?
A: The Km was 720 µM.

Q: And the Vmax [6]?
A: The Vmax was 21.3 µmol/min/mg.

Q: And the kcat [6]?
A: The kcat was 17 s⁻¹.

Q: What about the kcat/Km [6] of the same compound?
A: The kcat/Km was 23600 M⁻¹ s⁻¹.

Q: How did the Km [7] turn out when “alcohol dehydrogenase KpADH (SEQ ID No. 2) mutant M3, S196P (Vanderwaltozyma polyspora DSM 70294; S196P)” was run?
A: Its Km is 604 µM.

Q: And the Vmax [7]?
A: Its Vmax is 22.3 µmol/min/mg.

Q: What about the kcat [7] of the same compound?
A: The kcat was 14.8 s⁻¹.

Q: What about the kcat/Km [7] of the same compound?
A: Its kcat/Km is 24600 M⁻¹ s⁻¹.
